Test results: IntAct's records for PubMed 19523115

B1: Solute carrier family 2, facilitated glucose transporter member 8 (Mus musculus), Q9JIF3 (parent)
chain: MSPEDPQETQPLLRPPEARTPRGRRVFLASFAAALGPLSFGFALGYSSPAIPSLRRTAPPALRLGDNAASWFGAVVTLGAAAGGILGGWLLDRAGRKLSLLLCTVPFVTGFAVITAARDVWMLLGGRLLTGLACGVASLVAPVYISEIAYPAVRGLLGSCVQLMVVTGILLAYVAGWVLEWRWLAVLGCVPPTLMLLLMCYMPETPRFLLTQHQYQEAMAALRFLWGSEEGWEEPPVGAEHQGFQLALLRRPGIYKPLIIGISLMVFQQLSGVNAIMFYANSIFEEAKFKDSSLASVTVGIIQVLFTAVAALIMDRAGRRLLLALSGVIMVFSMSAFGTYFKLTQSLPSNSSHVGLVPIAAEPVDVQVGLAWLAVGSMCLFIAGFAVGWGPIPWLLMSEIFPLHVKGVATGICVLTNWFMAFLVTKEFSSVMEMLRPYGAFWLTAAFCALSVLFTLTVVPETKGRTLEQVTAHFEGR
B2: Solute carrier family 2, facilitated glucose transporter member 8 (Mus musculus), Q9JIF3 (parent)
chain: B1 chain
partner: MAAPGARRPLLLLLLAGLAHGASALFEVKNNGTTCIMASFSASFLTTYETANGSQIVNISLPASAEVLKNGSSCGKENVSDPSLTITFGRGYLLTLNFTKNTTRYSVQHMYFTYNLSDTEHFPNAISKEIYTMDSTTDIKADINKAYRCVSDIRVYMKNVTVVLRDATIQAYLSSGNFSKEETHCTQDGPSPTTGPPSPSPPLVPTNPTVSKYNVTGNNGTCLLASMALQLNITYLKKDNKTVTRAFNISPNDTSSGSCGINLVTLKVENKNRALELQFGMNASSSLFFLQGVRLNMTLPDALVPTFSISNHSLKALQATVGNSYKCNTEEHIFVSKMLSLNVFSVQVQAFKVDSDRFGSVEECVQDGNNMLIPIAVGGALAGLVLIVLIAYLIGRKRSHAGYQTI

Variants of: B1
Conditions: with ap1g1_human AP1G1, O43747
Chain of ap1g1_human AP1G1, O43747 (O43747 whole entry): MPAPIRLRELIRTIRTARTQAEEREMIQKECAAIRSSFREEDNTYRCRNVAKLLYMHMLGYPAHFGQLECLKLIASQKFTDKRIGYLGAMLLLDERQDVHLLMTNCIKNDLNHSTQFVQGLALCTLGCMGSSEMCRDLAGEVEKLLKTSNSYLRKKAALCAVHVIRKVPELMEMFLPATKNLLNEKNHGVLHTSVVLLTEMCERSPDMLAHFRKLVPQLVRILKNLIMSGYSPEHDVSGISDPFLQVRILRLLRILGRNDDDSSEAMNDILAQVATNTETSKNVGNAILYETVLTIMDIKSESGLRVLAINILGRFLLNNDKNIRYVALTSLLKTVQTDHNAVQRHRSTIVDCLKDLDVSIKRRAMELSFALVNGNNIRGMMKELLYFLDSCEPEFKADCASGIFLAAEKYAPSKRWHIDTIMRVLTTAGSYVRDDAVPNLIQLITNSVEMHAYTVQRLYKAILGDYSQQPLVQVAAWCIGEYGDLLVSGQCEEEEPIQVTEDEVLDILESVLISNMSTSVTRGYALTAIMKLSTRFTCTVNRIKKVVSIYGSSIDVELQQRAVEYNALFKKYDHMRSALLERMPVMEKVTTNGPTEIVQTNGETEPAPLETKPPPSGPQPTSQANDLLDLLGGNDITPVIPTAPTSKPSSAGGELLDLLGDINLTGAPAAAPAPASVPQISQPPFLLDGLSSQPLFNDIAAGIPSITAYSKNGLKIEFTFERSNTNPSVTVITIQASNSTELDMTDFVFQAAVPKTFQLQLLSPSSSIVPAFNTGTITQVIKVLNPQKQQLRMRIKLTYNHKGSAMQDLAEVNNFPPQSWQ

Row | Variant | effect of a mutation on the interaction
1 | L12A | disrupting interaction

Variants of: B1
Conditions: with ap1g1_mouse Ap1g1, P22892
Chain of ap1g1_mouse Ap1g1, P22892 (P22892 whole entry): as the sequence (O43747 whole entry) above, with T596S, S650A, N664T, A674T, A702P, I769V counted along it

Row | Variant | effect of a mutation on the interaction
2 | L12A | disrupting interaction

Variants of: B1
Conditions: with ap2b1_rat Ap2b1, P62944
Chain of ap2b1_rat Ap2b1, P62944 (P62944 whole entry): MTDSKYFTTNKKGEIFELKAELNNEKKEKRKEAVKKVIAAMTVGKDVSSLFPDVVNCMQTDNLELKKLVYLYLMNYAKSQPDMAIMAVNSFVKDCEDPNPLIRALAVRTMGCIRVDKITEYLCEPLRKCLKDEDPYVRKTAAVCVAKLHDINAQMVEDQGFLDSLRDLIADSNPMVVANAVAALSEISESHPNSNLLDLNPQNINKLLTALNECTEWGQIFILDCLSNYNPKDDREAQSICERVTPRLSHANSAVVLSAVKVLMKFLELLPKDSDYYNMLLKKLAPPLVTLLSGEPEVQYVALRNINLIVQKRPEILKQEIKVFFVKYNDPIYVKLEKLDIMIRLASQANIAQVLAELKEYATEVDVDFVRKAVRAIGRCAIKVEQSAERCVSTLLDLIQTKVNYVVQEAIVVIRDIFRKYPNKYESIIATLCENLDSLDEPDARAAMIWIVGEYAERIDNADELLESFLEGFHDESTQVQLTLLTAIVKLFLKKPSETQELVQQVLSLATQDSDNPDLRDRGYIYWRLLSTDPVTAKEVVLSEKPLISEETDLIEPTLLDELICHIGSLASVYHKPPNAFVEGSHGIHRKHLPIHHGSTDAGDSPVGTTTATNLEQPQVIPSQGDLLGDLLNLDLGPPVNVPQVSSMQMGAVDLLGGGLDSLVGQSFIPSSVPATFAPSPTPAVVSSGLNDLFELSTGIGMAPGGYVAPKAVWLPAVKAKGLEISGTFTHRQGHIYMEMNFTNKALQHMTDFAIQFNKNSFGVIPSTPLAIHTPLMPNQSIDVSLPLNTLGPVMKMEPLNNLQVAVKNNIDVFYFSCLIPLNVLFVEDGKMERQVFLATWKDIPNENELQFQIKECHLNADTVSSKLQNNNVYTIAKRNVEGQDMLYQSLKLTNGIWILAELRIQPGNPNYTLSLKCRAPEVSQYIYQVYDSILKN

Row | Variant | effect of a mutation on the interaction
3 | L12A | decreasing interaction

Variants of: B1
Conditions: with ap2b1_mouse Ap2b1, Q9DBG3
Chain of ap2b1_mouse Ap2b1, Q9DBG3 (Q9DBG3 whole entry): as the sequence (P62944 whole entry) above, with A612T counted along it

Row | Variant | effect of a mutation on the interaction
4 | L13A | increasing interaction

Variants of: B2
Conditions: with lamp1_mouse Lamp1, P11438

Row | Variant | effect of a mutation on the interaction
5 | L12A | disrupting interaction
